# Reference: patent publication US7374920B2, “Ginkgo biloba levopimaradiene synthase” (priority 2001, dated 2008)
# Entries after “also recorded” stand apart in the source; their conditions may differ.
# B1: Levopimaradiene synthase: enzyme which catalyzes the synthesis of levopimaradiene from geranylgeranyl diphosphate; SEQ.ID.NO:2 (protein, listed as Ginkgo biloba)
# chain: MAGVLFANLPCSLQLSPKVPFRQSTNILIPFHKRSSFGFNAQHCVRSHLRLRWNCVGIHASAAETRPDQLPQEERFVSRLNADYHPAVWKDDFIDSLTSPNSHATSKSSVDETINKRIQTLVKEIQCMFQSMGDGETNPSAYDTAWVARIPSIDGSGAPQFPQTLQWILNNQLPDGSWGEECIFLAYDRVLNTLACLLTLKIWNKGDIQVQKGVEFVRKHMEEMKDEADNHRPSGFEVVFPAMLDEAKSLGLDLPYHLPFISQIHQKRQKKLQKIPLNVLHNHQTALLYSLEGLQDVVDWQEITNLQSRDGSFLSSPASTACVFMHTQNKRCLHFLNFVLSKFGDYVPCHYPLDLFERLWAVDTVERLGIDRYFKKEIKESLDYVYRYWDAERGVGWARCNPIPDVDDTAMGLRILRLHGYNVSSDVLENFRDEKGDFFCFAGQTQIGVTDNLNLYRCSQVCFPGEKIMEEAKTFTTNHLQNALAKNNAFDKWAVKKDLPGEVEYAIKYPWHRSMPRLEARSYIEQFGSNDVWLGKTVYKMLYVSNEKYLELAKLDFNMVQALHQKETQHIVSWWRESGFNDLTFTRQRPVEMYFSVAVSMFEPEFAACRIAYAKTSCLAVILDDLYDTHGSLDDLKLFSEAVRRWDISVLDSVRDNQLKVCFLGLYNTVNGFGKDGLKEQGRDVLGYLRKVWEGLLASYTKEAEWSAAKYVPTFNEYVENAKVSIALATVVLNSIFFTGELLPDYILQQVDLRSKFLHLVSLTGRLINDTKTYQAERNRGELVSSVQCYMRENPECTEEEALSHVYGIIDNALKELNWELANPASNAPLCVRRLLFNTARVMQLFYMYRDGFGISDKEMKDHVSRTLFDPVA
# B2: Leu^80: Ginkgo biloba levopimaradiene synthase truncated at Arg^79-Leu^80; amino acid sequence SEQ.ID.NO:37 (protein, listed as Ginkgo biloba)
# chain: MLNADYHPAVWKDDFIDSLTSPNSHATSKSSVDETINKRIQTLVKEIQCMFQSMGDGETNPSAYDTAWVARIPSIDGSGAPQFPQTLQWILNNQLPDGSWGEECIFLAYDRVLNTLACLLTLKIWNKGDIQVQKGVEFVRKHMEEMKDEADNHRPSGFEVVFPAMLDEAKSLGLDLPYHLPFISQIHQKRQKKLQKIPLNVLHNHQTALLYSLEGLQDVVDWQEITNLQSRDGSFLSSPASTACVFMHTQNKRCLHFLNFVLSKFGDYVPCHYPLDLFERLWAVDTVERLGIDRYFKKEIKESLDYVYRYWDAERGVGWARCNPIPDVDDTAMGLRILRLHGYNVSSDVLENFRDEKGDFFCFAGQTQIGVTDNLNLYRCSQVCFPGEKIMEEAKTFTTNHLQNALAKNNAFDKWAVKKDLPGEVEYAIKYPWHRSMPRLEARSYIEQFGSNDVWLGKTVYKMLYVSNEKYLELAKLDFNMVQALHQKETQHIVSWWRESGFNDLTFTRQRPVEMYFSVAVSMFEPEFAACRIAYAKTSCLAVILDDLYDTHGSLDDLKLFSEAVRRWDISVLDSVRDNQLKVCFLGLYNTVNGFGKDGLKEQGRDVLGYLRKVWEGLLASYTKEAEWSAAKYVPTFNEYVENAKVSIALATVVLNSIFFTGELLPDYILQQVDLRSKFLHLVSLTGRLINDTKTYQAERNRGELVSSVQCYMRENPECTEEEALSHVYGIIDNALKELNWELANPASNAPLCVRRLLFNTARVMQLFYMYRDGFGISDKEMKDHVSRTLFDPVA
# How the values were obtained:
# [1] = system: EHY18 yeast cells; experiment: in vivo expression of GbLS constructs in yeast strain EHY18 that accumulates GGDP, GC quantitation of products; assay type: cell-based
# Experimental: The yeast strain of the copending application employed was EHY18 (Hart, E., 2001) which was further transformed with multiple-copy yeast expression vectors comprising an isolated and purified nucleic acid sequence of GbLS or derivatives thereof, which are described herein under control of the GAL1 inducible promoter. Yeast cells were grown to saturation in 5 mL ScD-Leu-Ura at 30° C. Cells were harvested (1300×g, 2 min, 25° C.) and resuspended in 500 μL sterile Milli-Q H2O (2×). The washed cells were resuspended in 5 mL sterile Milli-Q H2O. An aliquot of the culture (5 μL) was added to a 25 mL Corex tube containing pre-prepared 2× resin and 5 mL ScG-Leu-Ura (4% galactose) and shaken at 30° C. for 6 days. Resin was collected by filtration through a Kontes chromatography column (1.7 cm diameter) and rinsed with dI H2O until eluent was clear. The resin was incubated in 2 mL ethanol for several minutes, eluted, and repeated 2×. The combined eluents were dissolved in approximately 3 mL dI H2O and extracted (3×) with 3 mL hexane. The combined extracts were concentrated under a stream of nitrogen. GC analysis (quantitation extrapolated from 0.2 mg/mL longifolene external standard) indicated the following product profile (obtained from triplicate measurement of three cultures): 0.61±0.20 mg/L levopimaradiene, 0.04±0.01 mg/L abietadiene, 0.15±0.05 mg/L abietatriene, 0.16±0.13 mg/L (+)-copalol, and 1.79±0.90 mg/L geranylgeraniol. GC/MS fragmentation confirmed the identity of each compound.
# A large scale culture (1-L) was prepared by growing the yeast cells to saturation in 5 mL ScD-Leu-Ura at 30° C. Cells were harvested (1300×g, 2 min, 25° C.) and resuspended in 500 μL sterile Milli-Q H2O (2×). The washed cells were resuspended in 5 mL sterile Milli-Q H2O. An aliquot of the culture (1 mL) was added to a 2 L flask containing 1-L ScG-Leu-Ura (4% galactose) and 88.27 g resin in 120 mL Milli-Q H2O (pre-prepared). The resin was eluted with ethanol (3×100 mL with 20 min incubation periods), which was subsequently extracted (6×) with hexane. The combined extracts were dried over magnesium sulfate, filtered, and concentrated under reduced pressure. GC analysis (quantitation extrapolated from 0.2 mg/mL longifolene external standard) indicated the following product profile (obtained from triplicate measurement): 0.29±0.04 mg/L levopimaradiene, 0.04±0.02 mg/L abietadiene, 0.13±0.04 mg/L abietatriene, 0.11±0.02 mg/L (+)-copalol, and 0.56±0.03 mg/L geranylgeraniol. GC/MS analyses confirmed the production of the above noted diterpenes, which included hydrocarbons and an alcohol.
# Further optimization studies employed the Ser61 construct. Factors influencing diterpene production included induction period and concentration of galactose and resin in the inducing medium.
# [2] = in vitro enzymatic assay of levopimaradiene synthase constructs expressed in E. coli BL21(DE3); assay type: biochemical, Escherichia coli
# Experimental: The desired plasmids were prepared by ligating the mutated gene insert into the similarly digested vectors pET32c(+) (Novagen; Madison, Wis.) and pRS426GAL (Hua, 2000), a multiple copy yeast expression vector. These plasmids was expressed in E. coli BL21(DE3) (Novagen; Madison, Wis.). E. coli cells were grown in Luria-Bertani medium supplemented with 100 μg/mL ampicillin at 37° C. with shaking to OD600 ˜0.6. The following parameters were tested: isopropyl 1-thio-β-D-galactopyranoside (IPTG) concentration (50, 100, 250, 500, and 1000 μM); and temperature and time (20° C. for 2, 3, 4, 6, 21 hours, 22° C. for 6, 8, 16, 19, 22, 45 hours, and 30° C. for 3, 6 hours). The following assay conditions were tested to obtain maximum diterpene product yield: 30 mM HEPES (N-2-hydroxyethylpiperazine-N′-[…]), pH 6.9, 7.2, 7.6, 8.0; 30 mM Tris (tris(hydroxymethyl)aminomethane hydrochloride), pH 7.4, 7.8, 8.2; 1, 5, 10% glycerol; 1, 3, 5, 10, 20 mM DTT (dithiothreitol); 20 mM β-mercaptoethanol; 2, 5, 8% Triton X-100; 5% Tween 80; 0, 2, 7.5, 20, 50 mM MgCl2; 0, 30, 500, 1000 μM MnCl2; 2, 10, 13.3, 20, 40, 80, 200 μM GGDP; and 23° C. and 32° C. assay temperatures.
# Optimal soluble protein production and diterpene yield were obtained with the following conditions. Cell cultures were induced with 1 mM IPTG at 20° C. with shaking for 6 hours and lysed by sonication in 30 mM HEPES, pH 7.2, 5 mM DTT, and 5% glycerol. The soluble fraction of the lysate (100 mg/mL) was incubated with 20 μM GGDP in 30 mM HEPES, pH 7.2, 5 mM DTT, 5% glycerol, 2 mM MgCl2, and 500 μM MnCl2 overnight at 32° C.
# (§1) All in vitro reactions were extracted 3× with hexane and dried over MgSO4. The reaction was further extracted twice with diethyl ether and dried over MgSO4. Thereafter, the crude lysate was suspended in 100 mM Tris, pH 8.0 containing 2.9 units/mg apyrase (a dephosphorylating agent) and 10 units/μL calf intestinal alkaline phosphatase, incubated at 30° C. for 3 hours, and extracted with diethyl ether as noted above (Croteau and Cane, 1985). The crude reaction mixtures were eluted over SiO2, concentrated, and analyzed by GC and GC/MS.
# (§2) Gas chromatography spectra were obtained on a Hewlett Packard 6890 Series GC System equipped with an Rtx-5 capillary column (Restek, 30 m×0.25 mm i.d., 0.10 μm df). The following separation conditions and temperature program were employed: injector port 250° C., FID 250° C., split ratio 39:1, helium flow 20 cm/s (0.6 mL/min), 150° C. hold 5 min, increase to 250° C. (5° C./min), hold 5 min. GC/MS spectra were obtained on a Hewlett-Packard 5890A instrument with a 30-m DB-5 ms column (J&W Scientific Inc., 0.25 mm i.d., 0.10 μm df). The following separation conditions and temperature program were employed: injector port 280° C., transfer lines: 280° C., helium flow at 30 cm/s (1 mL/min) with splitless injection at 150° C. hold 3 min, increase to 250° C. (5° C./min), hold 5 min. Mass spectra (m/z 50 to 500) were obtained on a VG ZAB-HF reverse-geometry double-focusing instrument at 70 eV with an electron-impact ion source (200° C.). Accelerating voltage was set to 8 kV and the resolution was 1000 (10% valley).
# The skilled artisan recognizes that lysis and assay conditions should be optimized. Examples of parameters that can be adjusted to optimize conditions include altering buffer, pH, reductant, reductant concentration, metal cofactors, cofactor concentrations, glycerol concentrations, substrate concentrations, and assay temperatures. […] Maximum soluble protein production and diterpene yield were obtained with the following conditions. Cell cultures were induced with 1 mM IPTG at 20° C. with shaking for 6 hours and lysed by sonication in 30 mM HEPES, pH 7.2, 5 mM DTT, and 5% glycerol. The soluble fraction of the lysate (100 mg/1 mL) was incubated with 20 μM GGDP in 30 mM HEPES, pH 7.2, 5 mM DTT, 5% glycerol, 2 mM MgCl2, and 500 μM MnCl2 overnight at 32° C. […]
# [3] = in vitro assay of levopimaradiene synthase constructs expressed in wild-type S. cerevisiae JBY575; assay type: biochemical, Saccharomyces cerevisiae; details: wild-type S. cerevisiae JBY575, galactose 48 hours, lysate with GGDP
# Experimental: Expression in S. cerevisiae JBY575, which represents wild-type yeast, was observed. JBY575 cells transformed with pRS426GAL inserted with the putative levopimaradiene synthase were grown in synthetic complete medium lacking uracil and supplemented with 2% glucose and 1.5% agar at 30° C. to saturation and induced with galactose for 48 hours. Cells were harvested, resuspended in lysis buffer, and mixed by vortexing over glass beads. The lysate was assayed with 60 μM GGDP in the presence and absence of 0.2% and 5% Triton X-100.
# as §1, §2
# The skilled artisan recognizes that lysis and assay conditions should be optimized. Examples of parameters that can be adjusted to optimize conditions include altering buffer, pH, reductant, reductant concentration, metal cofactors, cofactor concentrations, glycerol concentrations, substrate concentrations, and assay temperatures. […] Maximum soluble protein production and diterpene yield were obtained with the following conditions. Cell cultures were induced with 1 mM IPTG at 20° C. with shaking for 6 hours and lysed by sonication in 30 mM HEPES, pH 7.2, 5 mM DTT, and 5% glycerol. The soluble fraction of the lysate (100 mg/1 mL) was incubated with 20 μM GGDP in 30 mM HEPES, pH 7.2, 5 mM DTT, 5% glycerol, 2 mM MgCl2, and 500 μM MnCl2 overnight at 32° C. Yeast expression was induced with galactose at 30° C. for 48 hours and the cells were lysed and assayed according to the conditions noted.
Molecule,increase in levopimaradiene yield relative to the bacterial expression system ([1]; EHY18),metal cofactor requirement of synthase activity ([2]; MgCl2 and MnCl2 varied),diterpene production relative to wild-type synthase ([1]; EHY18),"diterpene products on expression in EHY18 ([1]; GC, GC/MS)",diterpene product on yeast expression [3],"diterpene product on bacterial expression ([2]; E. coli BL21(DE3), soluble lysate fraction, 20 μM GGDP, overnight at 32° C., GC and GC/MS)"
B1,three- to six,independent of magnesium but required manganese cofactor for catalysis,,,,
B2,,,approximately four,"produced (+)-copalol, levopimaradiene, abietadiene, and abietatriene",yielded levopimaradiene as the sole diterpene; also recorded: yielded levopimaradiene synthase activity,produced levopimaradiene as the exclusive diterpene hydrocarbon; also recorded: provided enzymatic activity capable of cyclizing geranylgeranyl diphosphate to levopimaradiene
